Assay results taken from US20220411483A1 (Chugai, published 2022).

T1: FcγRIIa R type extracellular domain with C-terminal His tag (human, UniProt P12318 34-217)
T1 construct: extracellular domain; also called FcgRIIaR; not shown: His tag at the C terminus
T1 sequence (looked up): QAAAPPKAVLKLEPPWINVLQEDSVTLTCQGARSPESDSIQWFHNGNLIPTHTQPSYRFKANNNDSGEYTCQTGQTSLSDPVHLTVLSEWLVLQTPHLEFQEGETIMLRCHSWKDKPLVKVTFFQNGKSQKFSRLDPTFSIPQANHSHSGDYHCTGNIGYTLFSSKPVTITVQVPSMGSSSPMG

T2: FcγRIIb extracellular domain with C-terminal His tag (human, UniProt P31994 43-217)
T2 construct: extracellular domain; also called FcgRIIb; not shown: His tag at the C terminus
T2 sequence (looked up): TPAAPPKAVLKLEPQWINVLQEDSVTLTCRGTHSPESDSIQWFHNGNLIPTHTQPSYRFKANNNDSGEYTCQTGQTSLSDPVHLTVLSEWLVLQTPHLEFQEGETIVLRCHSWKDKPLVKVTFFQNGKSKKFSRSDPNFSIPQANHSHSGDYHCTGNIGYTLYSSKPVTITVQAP

T3: human FcγRIIa R type extracellular domain with C-terminal His tag (human, UniProt P12318 34-217)
T3 construct: extracellular domain; also called FcgRIIaR
T3 sequence (looked up): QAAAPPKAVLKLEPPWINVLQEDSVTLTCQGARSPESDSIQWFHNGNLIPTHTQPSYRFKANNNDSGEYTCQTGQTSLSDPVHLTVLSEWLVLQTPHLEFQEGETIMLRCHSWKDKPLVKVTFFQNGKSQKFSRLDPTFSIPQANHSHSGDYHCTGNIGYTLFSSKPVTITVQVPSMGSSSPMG

T4: human FcγRIIa H type extracellular domain with C-terminal His tag (human, UniProt P12318 34-217)
T4 construct: extracellular domain; also called FcgRIIaH
T4 sequence (looked up): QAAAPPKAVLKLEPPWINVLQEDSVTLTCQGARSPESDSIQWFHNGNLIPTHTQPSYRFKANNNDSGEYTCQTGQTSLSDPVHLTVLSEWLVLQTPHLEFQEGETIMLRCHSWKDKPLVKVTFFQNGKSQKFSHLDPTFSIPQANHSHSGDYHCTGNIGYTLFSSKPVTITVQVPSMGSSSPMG

T5: human FcγRIIb extracellular domain with C-terminal His tag (human, UniProt P31994 43-217)
T5 construct: extracellular domain; also called FcgRIIb
T5 sequence (looked up): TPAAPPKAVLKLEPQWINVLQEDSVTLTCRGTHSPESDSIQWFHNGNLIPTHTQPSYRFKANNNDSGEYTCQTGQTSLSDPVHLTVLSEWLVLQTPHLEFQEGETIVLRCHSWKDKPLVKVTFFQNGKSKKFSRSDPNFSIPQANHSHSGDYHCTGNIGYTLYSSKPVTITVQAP


Legend:
[1] = molecular target: T1, FcγRIIa R type extracellular domain …; assay: SPR; ratio of KD values, reference IL6R-G1d/IL6R-L
[2] = molecular target: T2, FcγRIIb extracellular domain with …; assay: SPR; ratio of KD values, reference IL6R-G1d/IL6R-L
[3] = molecular target: T6, human FcγRIa extracellular domain with C-terminal His tag (human, UniProt P12314 16-292); assay: SPR, antibody captured, FcgR analyte
T6 construct: Whole entry named; also called FcgRIa
T6 sequence (P12314 16-292): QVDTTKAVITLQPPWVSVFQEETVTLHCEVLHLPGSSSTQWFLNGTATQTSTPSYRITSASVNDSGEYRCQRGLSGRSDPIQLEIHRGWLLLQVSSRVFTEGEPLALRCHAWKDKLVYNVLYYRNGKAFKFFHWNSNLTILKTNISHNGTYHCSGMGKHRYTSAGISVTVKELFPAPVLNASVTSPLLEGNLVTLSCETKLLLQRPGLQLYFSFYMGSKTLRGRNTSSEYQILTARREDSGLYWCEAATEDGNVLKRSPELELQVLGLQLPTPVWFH

[4] = molecular target: T3, human FcγRIIa R type extracellular …; assay: SPR, antibody captured, FcgR analyte
[5] = molecular target: T4, human FcγRIIa H type extracellular …; assay: SPR, antibody captured, FcgR analyte
[6] = molecular target: T5, human FcγRIIb extracellular domain with …; assay: SPR, antibody captured, FcgR analyte
[7] = molecular target: T7, human FcγRIIIa V type extracellular domain with C-terminal His tag (human, UniProt P08637 17-208); assay: SPR, antibody captured, FcgR analyte
T7 construct: extracellular domain; also called FcgRIIIaV
T7 sequence (P08637 17-208 F176V): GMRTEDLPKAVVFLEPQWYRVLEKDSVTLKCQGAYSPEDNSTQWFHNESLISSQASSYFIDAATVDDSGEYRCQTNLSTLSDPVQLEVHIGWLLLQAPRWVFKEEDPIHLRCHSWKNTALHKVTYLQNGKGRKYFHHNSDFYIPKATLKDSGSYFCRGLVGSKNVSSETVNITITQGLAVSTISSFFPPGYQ

[8] = molecular target: T6, human FcγRIa extracellular domain with …; assay: SPR, KD of IL6R-G1d/IL6R-L divided by KD of variant
[9] = molecular target: T3, human FcγRIIa R type extracellular …; assay: as above
[10] = molecular target: T4, human FcγRIIa H type extracellular …; assay: as above
[11] = molecular target: T5, human FcγRIIb extracellular domain with …; assay: as above
[12] = molecular target: T7, human FcγRIIIa V type extracellular …; assay: as above

KD of G1d for FcgRIIaR/KD of Each Variant for FcgRIIaR [1]	KD of G1d for FcgRIIb/KD of Each Variant for FcgRIIb [2]	Kd [3] [nM]	Kd [4] [nM]	Kd [5] [nM]	Kd [6] [nM]	Kd [7] [nM]	Relative FcgRIa-binding Activity [8]	Relative FcgRIIaR-binding Activity [9]	Relative FcgRIIaH-binding Activity [10]	Relative FcgRIIb-binding Activity [11]	Relative FcgRIIIaV-binding Activity [12]	Binder
1.4	256											IL6R-P587/IL6R-L (antibody, human IgG1, kappa, human IgG1) heavy: QVQLQESGPGLVKPSETLSLTCAVSGHSISHDHAWSWVRQPPGEGLEWIGFISYSGITNYNPSLQGRVTISRDNSKNTLYLQMNSLRAEDTAVYYCARSLARTTAMDYWGEGTLVTVSSASTKGPSVFPLAPSSKSTSGGTAALGCLVKDYFPEPVTVSWNSGALTSGVHTFPAVLQSSGLYSLSSVVTVPSSSLGTQTYICNVNHKPSNTKVDKKVEPKSCDKTHTCPPCPAPDLLGGDSVFLFPPKPKDTLMISRTPEVTCVVIDVAEEDGEVKFNWYVDGVEVHNAKTKPREEQYNSTYRVVSVLTVLHQDWLNGKEYKCKVSNKALPAPIEKTISKAKGQPREPQVYTLPPSRDELTKNQVSLTCLVKGFYPSDIAVEWESNGQPENNYKTTPPVLDSDGSFFLYSKLTVDKSRWQQGNVFSCSVMHEALHNHYTQKSLSLSP light: not shown
		0.33	1400	1200	2400	1600	0.97	0.79	0.517	0.9	0.231	IL6R-G1dGSS/IL6R-L (antibody, human IgG1, kappa) heavy: QVQLQESGPGLVKPSETLSLTCAVSGHSISHDHAWSWVRQPPGEGLEWIGFISYSGITNYNPSLQGRVTISRDNSKNTLYLQMNSLRAEDTAVYYCARSLARTTAMDYWGEGTLVTVSSASTKGPSVFPLAPSSKSTSGGTAALGCLVKDYFPEPVTVSWNSGALTSGVHTFPAVLQSSGLYSLSSVVTVPSSSLGTQTYICNVNHKPSNTKVDKKVEPKSCDKTHTCPPCPAPELLGGPSVFLFPPKPKDTLMISRTPEVTCVVVDVSHEDPEVKFNWYVDGVEVHNAKTKPREEQYNSTYRVVSVLTVLHQDWLNGKEYKCKVSNKGLPSSIEKTISKAKGQPREPQVYTLPPSRDELTKNQVSLTCLVKGFYPSDIAVEWESNGQPENNYKTTPPVLDSDGSFFLYSKLTVDKSRWQQGNVFSCSVMHEALHNHYTQKSLSLSP light: not shown
